Source: the domain aggregation screens of Martell et al. (2025)

Assay: soluble fraction after stress (log2 fold change); higher = more stays soluble; pooled small domains, quantitative proteomics
Conditions: stress: 50 degC
Summary of the method: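 Pooled custom libraries of small protein domains were measured in a high-throughput format, with quantitative proteomics as the read-out. Each library was stressed at 50°C. Aggregation propensity is given as the base-two logarithm of the fold change in how much of each protein stays soluble after the stress. Higher values mean a larger share of the protein remains in solution.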

Sequence | soluble fraction (log2)
HMEFEYFQLRDHLYNLIMHPDKEKLKKDPDYLKLMSMAFSLLEDQNVGKDILEIAIKSIENFK | -0.573
HMEKIRIQKYLSERGVMSRRAADSALAEGRIAVNGVTARPGDKIDPSSDTLTIDGRIVTTGTAP | 0.00802
HMLSRNEWLVMEALWERPSTLMELVRQLGQEPPGWAKSTTATMVRRMEEKGLIRHEAGSKARVYHP | -0.885
HMTEEYAVLWRVARQTLKPEAFDVLWMKYREQLSIAEIAGIMNRSETSVKVMLHRARKNLGTALESS | -1.71
HMILVLKPGAPEDLKNELIHDIEKMGLRVHVSVGEGTTIIGLIGDTSKISKYTFSSYEIVSNVLRVT | -0.0106
HMAPKVTLNETETAIFEKMQQEKQLLLSELRTHFDISNKLWDTSIKTLTKNQLLTVSKEADLLWIKL | -0.658
HMDSINGEASISRELHGTRFDQAAAILFPEFSRSRLQAWIGAGALTLDGQTARAKDKVTQGQHLVLAAAVE | -0.0684
HMIIVMKRNATETQIDHVVRWVESIGYRAHRSNGTEQTVVKAVGGERGGEELKYLAALSGVEKVVPIR | -0.0291
HMEVKSGFVHLTGAVKSPGVYPISIGMRLFEVIALAGGFTAKADRESVNLARTVTDGEQIIVSGSG | -1.7
HMGNTLAYSEFRQKVQEGAVKQVVLSEDRVTGELTNGDRFTANIVRDPELLKMLNDNNVKYDGKPT | 0.203
HMSEGEMSQWIIAQAKQQGGGFQPDAARLLGSYVGNNTLRARQEIDKLLTYVGPSRVVTPEDVVLLTA | -0.0143
HMLGKEVVRAYNISYAIDDKGSLQGDLTAALTGLIPLSKPPVLDQRNRSLYVTATPEQHKDVAALLAKL | -0.171
HMQAGNAVEQYPTIGRLEEVTLGRSQPGAPIGERLSTLETVVFKRNFNDDSLFDRTERLKKTILGG | 0.0575
HMPQQVFKREDLQKWGLTGQADSRKRREKLGQLLGIGYGNGKQLIHRLNMFQVDRATFEQAIKQINQEEDH | -0.423
HMSKININTITESELKELPISTVKQKAIQDYLIDRGFISNIYDLLDIKEITSDDVSLLKKVVNVKLPY | -0.218
HMLIDQYPYSIIYRLIPHGRSNAVPAAQIVGLTKLDERSIRIYVEAMRREGHIIASSSKGYYFPASIEE | -2.83
HMQKDAYVPDIISKLKSSRMIVVEGTIYPLLTRLKNTGLLSYRWEESLQGPPRKYYSITEQG | 0.112
HMVPQAVQDIKAYLASGALPYIGPATAKKIVAMFGSDALDVIAEHPEQLTAIRGLNEEKANAIHQEFRRQF | -0.0649
HMWPDDAIALPTRDGQDVGGAQERTMLAFASGAAGIRTVEEINPDGSITRLRTRYGWPTFETEGARTAAAE | -0.109
HMSIQMPDLSITPVTDAKKKIESLQLQYKEVGEYNDSVIAGYVIRTEPASGSYLNEDEEVIIYVSKG | -0.246
HMLQLKEPLKKVYERLTPVPKTAETILAELWEKGEYLDIAALHRALMELELSGYVRQSSPGYFGTSA | -0.096
HMEGVTVPDVTRISLDEAEELLTSYGLRFEVADRRANSAFPGNYVIDQAPSAEVIVKPNRKIYLTVNAA | -0.134
HMVELVKVPALQGETVDEAIADIKDAGLEPGQVRYVESDLPKDTVTYQSVDAGEQVKAGTVINLQASKGP | 0.251
HMGISEKVINIIETYTMIARKKYPSVKSLAEHFNVSERTVHRYLEIIKMIDVVDYDREKKGYFFPYGDR | -1.11
HMQVSDVTELRTILEKVITENESVATEFKEGKDAAMNFLVGQGMKATRGAADPALLKEIITGIL | 0.0889
HMENAEALLKKLSGVLSDYEYKMLMLYADGKTPRRIAQETGQSAKSVSNALFRARTKLKELYEDQ | -0.331
HMEQNHYEVLGVSRDAIPEEIRKAYFEYARKLHPDANPDPGAAEQFMRIQTAYDVLSNPDRRHEYDGLLPP | -0.000773
HMIDSVFASYRQVALDDELWDKVRNGAVLPKVELFEVMDGPVLFTYQSKIVAMYEPHPTKAGYIKPRKMFL | -1.18
HMKASTRELLDFVLSQRGVSTASVAKALGISVQNASTRLKKLSNEGLIIRSEASSLTGGIEFLYS | -0.799
HMQPVLSDAEVNDLKNIAGGERGYNQLMDWAGNNLTAQDAKSYDDVLATGNKAAISFAIKALMGQYEDAN | 0.047
